Legend:
hMPV107 = molecular target: T1, hMPV107 (hMPV B, UniProt Q6WB98 19-102); assay: BLI, 56C stress
T1 construct: S149T
Description: (§1) All measurements were conducted at 30° C. temperature in 96-well black plates (Corning, Corning, NY) with a final volume of 240 μL per well at a constant agitation rate of 1000 RPM.
(§2) Conformation integrity of hMPV B F protein mutants were evaluated by a thermal stress experiment. Crude cell culture supernatants were normalized based on the results of the titer quantitation and then incubated for 1 hour at room temperature and two higher temperatures. For the testing of hMPV B single mutants, the two temperatures were 53° C. and 56° C. After the incubation, the protein mutants were probed with prefusion specific monoclonal antibody hMPV-2 by OCTET HTX. Anti-Human IgG Fc Capture (AHC) biosensors were first equilibrated in PB before being dipped into more PB for to establish the initial baseline. Biosensors were incubated with hMPV-2 before being equilibrated in PB to establish the experimental baseline. The mAb-bound biosensors were then dipped into the thermal stresses cell culture supernatants for 5 minutes.

hMPV106 = molecular target: T2, hMPV106 (hMPV B, UniProt Q6WB98 19-102); assay: BLI, 56C stress
T2 construct: T49I
Description: as §1, §2

hMPV102 = molecular target: T3, hMPV102 (hMPV B, UniProt Q6WB98 19-102); assay: BLI, 56C stress
T3 construct: L141C-A161C
Description: as §1, §2

hMPV103 = molecular target: T4, hMPV103 (hMPV B, UniProt Q6WB98 19-102); assay: BLI, 56C stress
T4 construct: E146C-T160C
Description: as §1, §2

hMPV105 = molecular target: T5, hMPV105 (hMPV B, UniProt Q6WB98 19-102); assay: BLI, 56C stress
T5 construct: G239A
Description: as §1, §2

hMPV101 = molecular target: T6, hMPV101 (hMPV B, UniProt Q6WB98 19-102); assay: BLI, 56C stress
T6 construct: A140C-S149C
Description: as §1, §2

hMPV104 = molecular target: T7, hMPV104 (hMPV B, UniProt Q6WB98 19-102); assay: BLI, 56C stress
T7 construct: A459P
Description: as §1, §2

hMPV B F WT Control = hMPV B F WT Control (hMPV B, UniProt Q6WB98 19-102); assay: BLI, 56C stress
Description: as §1, §2

hMPV100 = molecular target: T8, hMPV100 (hMPV B, UniProt Q6WB98 19-102); assay: BLI, 56C stress
T8 construct: T411C-Q434C
Description: as §1, §2

PIV1069 = molecular target: T9, PIV1069 (PIV1); assay: BLI, no stress
T9 construct: F113G, F114S, A466L, S473L, G134A
Description: (§3) Conformation integrity of PIV1 F protein mutants were evaluated by a thermal stress experiment. Crude cell culture supernatants were normalized based on the results of the titer quantitation and then incubated for 1 hour at room temperature and two higher temperatures. For the initial testing of PIV1 mutants, the two temperatures were 50° C. and 53° C. […] Anti-Human IgG Fc Capture (AHC) biosensors were first equilibrated in PB for before being dipped into more PB to establish the initial baseline. […] The mAb-bound biosensors were then dipped into the thermal stresses cell culture supernatants for 5 minutes.

PIV1070 = molecular target: T10, PIV1070 (PIV1); assay: BLI, no stress
T10 construct: F113G, F114S, A466I, S473I, G134A
Description: as §3

[1] = molecular target: T11, PIV1 F literature prefusion comparison (PIV1); assay: BLI, no stress
T11 construct: F113G, F114S, A466I, S473I (Stewart-Jones et al. 2018)
Description: as §3

PIV1048 = molecular target: T12, PIV1048 (PIV1); assay: BLI, 56C stress;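 also: binding of thermally stressed PIV1 F mutant supernatant to mAb on AHC biosensors for 5 min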
T12 construct: Q92C-G134C, A466L, S473L, A480L
Description: (§4) The OCTET HTX (Sartorius, Gottingen, Germany) instrument was used to evaluate the expression and conformational integrity for each mutant. All measurements were conducted at 30° C. temperature in 96-well black plates (Corning, Corning, NY) with a final volume of 240 μL per well at a constant agitation rate of 1000 RPM.
as §3

PIV1057 = molecular target: T13, PIV1057 (PIV1); assay: BLI, 56C stress;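 also: binding of thermally stressed PIV1 F mutant supernatant to mAb on AHC biosensors for 5 min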
T13 construct: A466L, S473L, A480L, Q92A, G134A
Description: as §4, §3

PIV1047 = molecular target: T14, PIV1047 (PIV1); assay: BLI, 56C stress;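 also: binding of thermally stressed PIV1 F mutant supernatant to mAb on AHC biosensors for 5 min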
T14 construct: F113G, F114S, Q92C-G134C, A466L, S473L, A480L
Description: as §4, §3

PIV1061 = molecular target: T15, PIV1061 (PIV1); assay: BLI, 56C stress;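 also: binding of thermally stressed PIV1 F mutant supernatant to mAb on AHC biosensors for 5 min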
T15 construct: Q92L, G134A, A466L, S473L
Description: as §4, §3

PIV1063 = molecular target: T16, PIV1063 (PIV1); assay: BLI, 56C stress
T16 construct: A466L, S473L, A480L, Q92A, G134L
Description: as §4, §3

PIV1053 = molecular target: T17, PIV1053 (PIV1); assay: BLI, 56C stress
T17 construct: F113G, F114S, A466L, S473L, A480L, G134A
Description: as §4, §3

PIV1058 = molecular target: T18, PIV1058 (PIV1); assay: BLI, 56C stress
T18 construct: A466L, S473L, Q92A, G134A
Description: as §4, §3

PIV1068 = molecular target: T19, PIV1068 (PIV1); assay: BLI, 56C stress
T19 construct: A466I, S473I, A480I, Q92L, G134A
Description: as §4, §3

PIV1064 = molecular target: T20, PIV1064 (PIV1); assay: BLI, 56C stress
T20 construct: F113G, F114S, Q92C-G134C, A466I, S473I, A480L
Description: as §4, §3

PIV1060 = molecular target: T21, PIV1060 (PIV1); assay: BLI, 56C stress
T21 construct: Q92L, G134A, A466L, S473L, A480L
Description: as §4, §3

PIV1051 = molecular target: T22, PIV1051 (PIV1); assay: BLI, 56C stress
T22 construct: Q92C-G134C, A466V, S473V, A480V
Description: as §4, §3

PIV1054 = molecular target: T23, PIV1054 (PIV1); assay: BLI, 56C stress
T23 construct: A466L, S473L, A480L, G134A
Description: as §4, §3

PIV1062 = molecular target: T24, PIV1062 (PIV1); assay: BLI, 56C stress
T24 construct: F113G, F114S, A466L, S473L, A480L, Q92A, G134L
Description: as §4, §3

PIV1056 = molecular target: T25, PIV1056 (PIV1); assay: BLI, 56C stress
T25 construct: F113G, F114S, A466L, S473L, A480L, Q92A, G134A
Description: as §4, §3

PIV1065 = molecular target: T26, PIV1065 (PIV1); assay: BLI, 56C stress
T26 construct: F113G, F114S, Q92C-G134C, A466I, S473I
Description: as §4, §3

PIV1066 = molecular target: T27, PIV1066 (PIV1); assay: BLI, 56C stress
T27 construct: A466I, S473I, A480L, Q92L, G134A
Description: as §4, §3

PIV1049 = molecular target: T28, PIV1049 (PIV1); assay: BLI, 56C stress
T28 construct: Q92C-G134C, A466L, S473L
Description: as §4, §3

PIV1059 = molecular target: T29, PIV1059 (PIV1); assay: BLI, 56C stress
T29 construct: F113G, F114S, A466L, S473L, A480L, G134A, Q92L
Description: as §4, §3

PIV1052 = molecular target: T30, PIV1052 (PIV1); assay: BLI, 56C stress
T30 construct: Q92C-G134C, A466V, S473V; also called PV1052
Description: as §4, §3

[2] = molecular target: T11, PIV1 F literature prefusion comparison; assay: BLI, 56C stress
Description: as §4, §3

PIV1055 = molecular target: T31, PIV1055 (PIV1); assay: BLI, 56C stress
T31 construct: A466L, S473L, G134A
Description: as §4, §3

PIV1050 = molecular target: T32, PIV1050 (PIV1); assay: BLI, 56C stress
T32 construct: F113G, F114S, Q92C-G134C, A466V, S473V, A480V
Description: as §4, §3

PIV1067 = molecular target: T33, PIV1067 (PIV1); assay: BLI, 56C stress
T33 construct: F113G, F114S, Q92C-G134C, A466I, S473I, A480I
Description: as §4, §3

B1: hMPV-2 mAb (antibody, V domains shown)
VH: QVQLQQSGAEVKKPGASVKVSCKASGYTFTSYGISWVRQAPGQGLEWMGWISGYNGNTNYAQTFQGTFTMTTDTSTSTAYMELRRLRSGDTAVYYCARDRYYASGSYNGMDVWGQGTTVTVSS
VL: QSALTQPPSASGAPGQRVTVSCSGSSSNVGSSSVYWYQQLPGTAPKLLIYRNNQRPSGVPDRFSGSKSGTSASLAISGLRSEDEADYYCAAWDDSLSGWVFGGGTKLTVLG
notes: human IgG1
Response Shift (hMPV107): 0.519 nm | Response Shift (hMPV106): 0.397 nm | Response Shift (hMPV102): 0.007 nm | Response Shift (hMPV103): 0.041 nm | Response Shift (hMPV105): 0.064 nm | Response Shift (hMPV101): 0.649 nm | Response Shift (hMPV104): -0.11 nm | Response Shift (hMPV B F WT Control): 0.005 nm | Response Shift (hMPV100): 0.779 nm

B2: PIV1-8 mAb (antibody, V domains shown)
VH: QVQLVQSGAEVKKPGSSVKVSCEASGGTFSNYVISWVRQAPGQGLEWMGGIIPVFATAKYAQKFQGRVTIIADQSTNTAYLELSSLRSDDTAVYFCASVDSGGTWWDAFAIWGQGTMVTVSS
VL: QAVVTQPRSVSGSPGQAVTISCTGTSSDVGGYNYVSWYQHHPGKAPKLIIYDVTKRPSGVPDRFSGSKSGNTASLTISGLQTEYEADYYCCSYAGSYTLVFGGGTKLTVLG
notes: human IgG1; also called hPIV1-8 mAb; hPIV1-8
Response Shift (PIV1069): 0.857 nm | Response Shift (PIV1070): 0.876 nm | Response Shift [1]: 0.769 nm | Response Shift (PIV1048): 0.71 nm | Response Shift (PIV1057): 0.737 nm | Response Shift (PIV1047): 0.754 nm | Response Shift (PIV1061): 0.526 nm | Response Shift (PIV1063): -0.069 nm | Response Shift (PIV1053): 0.776 nm | Response Shift (PIV1058): 0.543 nm | Response Shift (PIV1068): 0.559 nm | Response Shift (PIV1064): 0.702 nm | Response Shift (PIV1060): 0.597 nm | Response Shift (PIV1051): 0.322 nm | Response Shift (PIV1054): 0.723 nm | Response Shift (PIV1062): 0.623 nm | Response Shift (PIV1056): 0.751 nm | Response Shift (PIV1065): 0.677 nm | Response Shift (PIV1066): 0.582 nm | Response Shift (PIV1049): 0.294 nm | Response Shift (PIV1059): 0.784 nm | Response Shift (PIV1052): -0.094 nm | Response Shift [2]: 0.119 nm | Response Shift (PIV1055): 0.682 nm | Response Shift (PIV1050): 0.695 nm | Response Shift (PIV1067): 0.728 nm

Source: patent US20240252614A1 (Pfizer, published 2024)
